US8173668B1 (Alcon Research, Ltd., priority 2007, dated 2012)

How the values were obtained:
[1] = tested on: conscious ocular hypertensive cynomolgus monkey eyes; experiment: IOP response in lasered (hypertensive) eyes of conscious cynomolgus monkeys, topical ocular; type: in vivo; conditions: for % Change in IOP: Table 10, 300 μg topical ocular
Method: Intraocular pressure (IOP) is determined with an Alcon Pneumatonometer (Alcon Laboratories, Inc., Fort Worth, Tex.) after light corneal anesthesia with 0.1% proparacaine. Right eyes are hypertensive as a result of laser trabeculoplasty. After a baseline IOP measurement, test compound is instilled in the right eyes only of 8-10 cynomolgus monkeys. Vehicle is instilled in the right eyes of 5-6 additional animals. Subsequent IOP measurements are taken at 1, 3, and 6 hours. IOP measurements are also taken on left eyes (normotensive and untreated) at each of these time points. The percent change in IOP from baseline is determined for each animal for every IOP measurement (Sharif et al. J. Ocular Pharmacol. Ther. 17: 305-317, 2001; May et al., J Pharmacol Exp Ther. 306: 301-309, 2003; Sharif et al. Invest. Ophthalmol. Vis. Res. 47: 4001-4010, 2006). Group mean and standard error of the mean (SEM) are calculated for each time point. […] In cases where the compound of invention has poor ocular bioavailability, the compound may need to be administered intracamerally or intravitreally in order to observe the IOP-lowering efficacy.
The IOP-lowering effect was slow to develop but significant IOP reduction was observed even 3 hours post-dosing with maximum ocular hypotension observed 16-48 hours post-dosing (Tables 6-8; FIGS. 3b-5).

[2] = target: human bradykinin B2-receptor (human) (UniProt P30411); experiment: cell-based or functional assay
[3] = target: T1, B2-receptors in h-TM cells (Homo sapiens, UniProt P30411); experiment: [Ca2+]i mobilization (FLIPR) in h-TM cells, agonist mode; type: cell-based; conditions: HTM, read-out: Intrinsic Activity (Emax, % max relative to BK)
T1 construct: B2-receptor proteins in h-TM, h-CM and h-NPE cells; endogenous in cells; host or cells: human trabecular meshwork (h-TM), human ciliary muscle (h-CM) and human non-pigmented ciliary epithelial (h-NPE) cells
T1 sequence (P30411 1-391): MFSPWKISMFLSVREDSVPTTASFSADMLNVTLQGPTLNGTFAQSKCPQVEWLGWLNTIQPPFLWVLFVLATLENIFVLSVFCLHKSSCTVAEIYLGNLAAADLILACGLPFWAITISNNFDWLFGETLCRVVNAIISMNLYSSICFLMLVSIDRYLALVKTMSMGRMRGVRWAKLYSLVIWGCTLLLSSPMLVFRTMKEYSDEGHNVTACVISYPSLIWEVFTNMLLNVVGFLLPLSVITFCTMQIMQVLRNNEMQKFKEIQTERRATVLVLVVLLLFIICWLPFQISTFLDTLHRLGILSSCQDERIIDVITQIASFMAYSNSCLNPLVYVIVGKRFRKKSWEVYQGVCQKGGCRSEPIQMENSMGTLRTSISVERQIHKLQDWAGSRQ
Method: (§1) On the day of the experiment, one vial of FLIPR Calcium Assay Kit dye is re-suspended in 50 mL of a FLIPR buffer consisting of Hank's Balanced Salt Solution (HBSS), 20 mM HEPES, and 2.5 mM probenecid, pH 7.4. Cells are loaded with the calcium-sensitive dye by addition of an equal volume (50 μL) to each well of the 96-well plate and incubated with dye for 1 h at 23° C. After this time, the test compound plate and cell plate are placed in the FLIPR instrument. At the beginning of an experimental run, a signal test is performed to check the basal fluorescence signal from the dye-loaded cells and the uniformity of the signal across the plate. The basal fluorescence is adjusted between 8000-12000 counts by modifying the exposure time, the camera F-stop, or the laser power. Instrument settings for a typical assay are the following: laser power 0.3-0.6 W, camera F-stop F/2, and exposure time 0.4 sec.
(§2) Fluorescence data are collected in real-time at 1.0 sec intervals for the first 60 secs and at 6.0 sec intervals for an additional 120 secs. […] The data are then analyzed using an automated, iterative, sigmoidal curve-fitting computer program to obtain the potency and intrinsic activities of the test agents as previously described (Sharif et al. J. Pharmacol. Exp. Ther. 286: 1094-1102, 1998; Sharif et al. Invest. Ophthalmol. Vis. Sci. 39:2562-2571, 1998; Kelly et al. J. Pharmacol. Exp. Ther. 304: 238-245, 2003). The sources of materials and reagents for such assays can be found in the references cited above.

[4] = target: T2, B2-receptors in h-NPE cells (Homo sapiens, UniProt P30411); experiment: [Ca2+]i mobilization (FLIPR) in h-NPE cells, agonist mode; type: cell-based; conditions: read-out: Intrinsic Activity (Emax, % max relative to BK)
T2 construct: B2-receptor proteins in h-TM, h-CM and h-NPE cells; endogenous in cells; host or cells: human trabecular meshwork (h-TM), human ciliary muscle (h-CM) and human non-pigmented ciliary epithelial (h-NPE) cells
T2 sequence (P30411 1-391): T1 sequence (P30411 1-391)
Method: as §1, §2

[5] = target: T3, B2-receptors in h-CM cells (Homo sapiens, UniProt P30411); experiment: [Ca2+]i mobilization (FLIPR) in h-CM cells, agonist mode; type: cell-based; conditions: read-out: Intrinsic Activity (Emax, % max relative to BK)
T3 construct: B2-receptor proteins in h-TM, h-CM and h-NPE cells; endogenous in cells; host or cells: human trabecular meshwork (h-TM), human ciliary muscle (h-CM) and human non-pigmented ciliary epithelial (h-NPE) cells
T3 sequence (P30411 1-391): T1 sequence (P30411 1-391)
Method: as §1, §2

B2-receptor mRNA = experiment: Microarray analysis of B2-receptor mRNA in TGFβ2-treated human TM cells; type: cell-based; conditions: mean ± SEM
B1-receptor mRNA = experiment: Microarray analysis of B1-receptor mRNA in TGFβ2-treated human TM cells; type: cell-based; conditions: Glaucomatous h-TM Cells, mean ± SEM
[6] = target: T4, human bradykinin B2-receptor (human, UniProt P30411 1-391); experiment: cell-based or functional assay
T4 sequence (looked up): T1 sequence (P30411 1-391)

CCCC[P+](CCCC)(CCCC)Cc1ccc(NC(=O)[C@H](Cc2ccc3ccccc3c2)NC(=NC2CCCCC2)NC2CCCCC2)cc1.[Cl-] [WIN-64338, reference compound]
modulation of IOP ([1]; 300 μg topically administered): failed to modulate IOP | % Change in IOP ([1]; Dose 1/1 hr): 1.7 ± 1.6% | % Change in IOP ([1]; Dose 1/3 hr): −10.4 ± 2.8% | % Change in IOP ([1]; Dose 1/6 hr): 1.3 ± 1.3%

Des-Arg^9-BK (Arg-Pro-Pro-Gly-Phe-Ser-Pro-Phe) (peptide)
[Ca2+]i mobilization in h-CM cells: Intrinsic Activity (Emax, % max relative to BK) [2]: 94% | [Ca2+]i mobilization in h-CM cells: Potency (EC50; nM) [2]: 4260 nM | [Ca2+]i mobilization in h-NPE cells: Intrinsic Activity (Emax, % max relative to BK) [2]: 70% | [Ca2+]i mobilization in h-NPE cells: Potency (EC50; nM) [2]: 16000 nM | [Ca2+]i mobilization in h-TM cells: Intrinsic Activity (Emax, % max relative to BK) [2]: 112% | [Ca2+]i mobilization in h-TM cells: Potency (EC50; nM) [2]: 2570 nM

H-RPPGFSPFR-OH [BK]
Emax [3]: 110% | Emax [4]: 98% | Emax [5]: 104%

Hyp^3-BK (Arg-Pro-Hyp-Gly-Phe-Ser-Pro-Phe-Arg) (peptide)
[Ca2+]i mobilization in h-CM cells: Intrinsic Activity (Emax, % max relative to BK) [2]: 105% | [Ca2+]i mobilization in h-NPE cells: Intrinsic Activity (Emax, % max relative to BK) [2]: 93% | [Ca2+]i mobilization in h-NPE cells: Potency (EC50; nM) [2]: 6 nM | [Ca2+]i mobilization in h-TM cells: Intrinsic Activity (Emax, % max relative to BK) [2]: 110% | [Ca2+]i mobilization in h-TM cells: Potency (EC50; nM) [2]: 0.9 nM

B1: TGFβ2: cytokine transforming growth factor-β2 (protein, UniProt P61812 303-414, looked up)
Transforming growth factor …: ALDAAYCFRNVQDNCCLRPLYIDFKRDLGWKWIHEPKGYNANFCAGACPYLWSSDTQHSRVLSLYNTINPEASASPCCVSQDLEPLTILYYIGKTPKIEQLSNMIVKSCKCS
Normalized Levels of B2-receptor mRNA (GC-RMA) (B2-receptor mRNA; Glaucomatous h-TM Cells, after 1.5 hr): 0.97 ± 0.06 | Normalized Levels of B2-receptor mRNA (GC-RMA) (B2-receptor mRNA; Glaucomatous h-TM Cells, after 16 hr): 0.24 ± 0.06 | Normalized Levels of B2-receptor mRNA (GC-RMA) (B2-receptor mRNA; Normal h-TM Cells, after 1.5 hr): 0.68 ± 0.05 | Normalized Levels of B2-receptor mRNA (GC-RMA) (B2-receptor mRNA; Normal h-TM Cells, after 16 hr): 0.14 ± 0.11 | Normalized Levels of B1-receptor mRNA (GC-RMA) (B1-receptor mRNA; after 1.5 hr): 1.54 ± 0.09 | Normalized Levels of B1-receptor mRNA (GC-RMA) (B1-receptor mRNA; after 16 hr): 0.53 ± 0.05

MKRPPGFSPFR [Met-Lys-BK (Met-Lys-Arg-Pro-Pro-Gly-Phe-Ser-Pro-Phe-Arg)]
[Ca2+]i mobilization in h-CM cells: Intrinsic Activity (Emax, % max relative to BK) [6]: 110% | [Ca2+]i mobilization in h-CM cells: Potency (EC50; nM) [6]: 16.1 nM | [Ca2+]i mobilization in h-NPE cells: Intrinsic Activity (Emax, % max relative to BK) [6]: 77% | [Ca2+]i mobilization in h-NPE cells: Potency (EC50; nM) [6]: 125 nM | [Ca2+]i mobilization in h-TM cells: Intrinsic Activity (Emax, % max relative to BK) [6]: 111% | [Ca2+]i mobilization in h-TM cells: Potency (EC50; nM) [6]: 6.5 nM

KRPPGFSPFR [Lys-BK (Lys-Arg-Pro-Pro-Gly-Phe-Ser-Pro-Phe-Arg)]
[Ca2+]i mobilization in h-CM cells: Intrinsic Activity (Emax, % max relative to BK) [6]: 115% | [Ca2+]i mobilization in h-CM cells: Potency (EC50; nM) [6]: 3.2 nM | [Ca2+]i mobilization in h-NPE cells: Intrinsic Activity (Emax, % max relative to BK) [6]: 90% | [Ca2+]i mobilization in h-NPE cells: Potency (EC50; nM) [6]: 19.6 nM | [Ca2+]i mobilization in h-TM cells: Intrinsic Activity (Emax, % max relative to BK) [6]: 115% | [Ca2+]i mobilization in h-TM cells: Potency (EC50; nM) [6]: 1.9 nM
